{"source": "paper doi:10.1101/2023.02.07.527441", "biological_target": "PmScsC-EcDsbA chimera (Proteus mirabilis | E. coli) (UniProt P0AEG4)", "assay": "AUC", "data": [{"substance": "PmScsC-EcDsbA chimera (from UniProt P0AEG4 20-208) (enzyme)", "values": [{"measurement": "stoichiometry N", "result": 3}]}]}
